These results are taken from the RNAGym collection of RNA variant scans (doi:10.7554/elife.90254).

The chains are these.
B1: OR4K15 (parent)
chain: GUUAACGGUCAUAGGCCAUGGAAACUAGGAGCACCAUUUCGCUGCCAGUGAAGAAAUGAACAAAGAAAAUCUGGGCCAGGCAGGCAUCAAAAGAAAUAGUCUUGCGCUCAACCAGAAAGUCUGUAAUCAUUUUAAGGGUA

The variants in the data set derive from B1. Kind of data set: self-cleavage, relative activity (ratio to wild type); higher = more cleavage; in vitro, sequencing; the parent is a self-cleaving ribozyme.
With GUUAACGGUCAUAGGCCAUGGAAACUAGGAGCACCAUUUCGCUGCCAGUGAAGAAAUGAACAAAGAAAAUCUGGGCCAGUCAGGCAUCAAAAGAAAUAGUCUUGCGCUCAACCAGAAAGUCUGUAAUCAUUUUAAGGGUA [G80U], the self-cleavage came out at 0.1.

In the case of GUUAACGGUCAUAGGCCAUGGAAACUAGGAGCACCAUUUCGCUGCCAGUGAAGAAAUGAACAAAGAAAAUCUGGGCCAGCCAGGCAUCAAAAGAAAUAGUCUUGCGCUCAACCAGAAAGUCUGUAAUCAUUUUAAGGGUA [G80C], the self-cleavage was 0.07.

Consider GUUAACGGUCAUAGGCCAUGGAAACUAGGAGCACCAUUUCGCUGCCAGUGAAGAAAUGAACAAAGAAAAUCUGGGCCAGACAGGCAUCAAAAGAAAUAGUCUUGCGCUCAACCAGAAAGUCUGUAAUCAUUUUAAGGGUA [G80A], for which the self-cleavage came to 0.24. Consider GUUAACGGUCAUAGGCCAUGGAAACUAGGAGCACCAUUUCGCUGCCAGUGAAGAAAUGAACAAAGAAAAUCUGGGCCUGGCAGGCAUCAAAAGAAAUAGUCUUGCGCUCAACCAGAAAGUCUGUAAUCAUUUCAAGGGUA [A78U U133C], for which the self-cleavage was 0.37. Under GUUAACGGUCAUAGGCCAUGGAAACUAGGAGCACCAUUUCGCUGCCAGUGAAGAAAUGAACAAAGAAAAUCUGGGCCAAGCAGGCAUCAAAAGAAAUAGUCUUGCGCUCAAGCAGAAAGUCUGUAAUCAUUUUAAGGGUA [G79A C112G] stands 0.12.

With GUUAACGGUCAUAGGCCAUGGAAACUAGGAGCACCAUUUCGCUGCCAGUGAAGAAAUGAACAAAGAAAAUCUGGGCCUGGCAGGCAUCAAAAGAAAUAGUCUUGCGCUCAACCAGAAAGUCUGUAAUCAUAUUAAGGGUA [A78U U131A], the self-cleavage stood at 0.18. For GUUAACGGUCAUAGGCCAUGGAAACUAGGAGCACCAUUUCGCUGCCAGUGAAGAAAUGAACAAAGAAAAUCUGGGCCAAGCAGGCACCAAAAGAAAUAGUCUUGCGCUCAACCAGAAAGUCUGUAAUCAUUUUAAGGGUA [G79A U87C], the self-cleavage worked out at 0.1. Under GUUAACGGUCAUAGGCCAUGGAAACUAGGAGCACCAUUUCGCUGCCAGUGAAGAAAUGAACAAAGAAAAUCUGGGCCAAGCAGGCAACAAAAGAAAUAGUCUUGCGCUCAACCAGAAAGUCUGUAAUCAUUUUAAGGGUA [G79A U87A] stands 0.11. Under GUUAACGGUCAUAGGCCAUGGAAACUAGGAGCACCAUUUCGCUGCCAGUGAAGAAAUGAACAAAGAAAAUCUGGGCCAGACAGGCAUCAAAAGAUAUAGUCUUGCGCUCAACCAGAAAGUCUGUAAUCAUUUUAAGGGUA [G80A A95U] stands 0.17. With GUUAACGGUCAUAGGCCAUGGAAACUAGGAGCACCAUUUCGCUGCCAGUGAAGAAAUGAACAAAGAAAAUCUGGGCCUGGCAGGCAUCAAAAGAAAUAGUCUUGCGCUCAACCAGAAAGUCUGCAAUCAUUUUAAGGGUA [A78U U124C] the figure was 0.26; with GUUAACGGUCAUAGGCCAUGGAAACUAGGAGCACCAUUUCGCUGCCAGUGAAGAAAUGAACAAAGAAAAUCUGGGCCUGGCAGGCAUCAAAAGAAAUAGUCUUGCGCUCAACCAGAAAGUCUGUAACCAUUUUAAGGGUA [A78U U127C], 0.07. As for GUUAACGGUCAUAGGCCAUGGAAACUAGGAGCACCAUUUCGCUGCCAGUGAAGAAAUGAACAAAGAAAAUCUGGGCCAGACAGGCAUCAAAGGAAAUAGUCUUGCGCUCAACCAGAAAGUCUGUAAUCAUUUUAAGGGUA [G80A A92G], the self-cleavage was found to be 0.16. Under GUUAACGGUCAUAGGCCAUGGAAACUAGGAGCACCAUUUCGCUGCCAGUGAAGAAAUGAACAAAGAAAAUCUGGGCCAGACAGGCAUCAAAAGAAAUAGUCUUGCGCUCAACCGGAAAGUCUGUAAUCAUUUUAAGGGUA [G80A A114G] stands 0.05; under GUUAACGGUCAUAGGCCAUGGAAACUAGGAGCACCAUUUCGCUGCCAGUGAAGAAAUGAACAAAGAAAAUCUGGGCCAGUCAGGCAUCAAGAGAAAUAGUCUUGCGCUCAACCAGAAAGUCUGUAAUCAUUUUAAGGGUA [G80U A91G], 0.11. Take GUUAACGGUCAUAGGCCAUGGAAACUAGGAGCACCAUUUCGCUGCCAGUGAAGAAAUGAACAAAGAAAAUCUGGGCCAAGCAGGCAUCAAAAGAAAUAGUCUUGCGCUCAACCAGAAAGUCUGUAAUCACUUUAAGGGUA [G79A U130C]: the self-cleavage is 0.15.

Turning to GUUAACGGUCAUAGGCCAUGGAAACUAGGAGCACCAUUUCGCUGCCAGUGAAGAAAUGAACAAAGAAAAUCUGGGCCAGCCAGGCAUCAAAAGAAUUAGUCUUGCGCUCAACCAGAAAGUCUGUAAUCAUUUUAAGGGUA [G80C A96U], the self-cleavage came out at 0.09. Under GUUAACGGUCAUAGGCCAUGGAAACUAGGAGCACCAUUUCGCUGCCAGUGAAGAAAUGAACAAAGAAAAUCUGGGCCAGACAGGCAUCAAAAGAAAUAGUCUUGCGCUCAACCAGAAAGUCUGUAAUCGUUUUAAGGGUA [G80A A129G] stands 0.09; under GUUAACGGUCAUAGGCCAUGGAAACUAGGAGCACCAUUUCGCUGCCAGUGAAGAAAUGAACAAAGAAAAUCUGGGCCAAGCAGGCUUCAAAAGAAAUAGUCUUGCGCUCAACCAGAAAGUCUGUAAUCAUUUUAAGGGUA [G79A A86U], 0.09; under GUUAACGGUCAUAGGCCAUGGAAACUAGGAGCACCAUUUCGCUGCCAGUGAAGAAAUGAACAAAGAAAAUCUGGGCCAAGCAGGCGUCAAAAGAAAUAGUCUUGCGCUCAACCAGAAAGUCUGUAAUCAUUUUAAGGGUA [G79A A86G], 0.22. With GUUAACGGUCAUAGGCCAUGGAAACUAGGAGCACCAUUUCGCUGCCAGUGAAGAAAUGAACAAAGAAAAUCUGGGCCAAGCAGGCAUCAAAAGAAAUUGUCUUGCGCUCAACCAGAAAGUCUGUAAUCAUUUUAAGGGUA [G79A A98U] the figure was 0.13; with GUUAACGGUCAUAGGCCAUGGAAACUAGGAGCACCAUUUCGCUGCCAGUGAAGAAAUGAACAAAGAAAAUCUGGGCCAAGCAGGCAUCAAAAGAAAUGGUCUUGCGCUCAACCAGAAAGUCUGUAAUCAUUUUAAGGGUA [G79A A98G], 0.03. Regarding GUUAACGGUCAUAGGCCAUGGAAACUAGGAGCACCAUUUCGCUGCCAGUGAAGAAAUGAACAAAGAAAAUCUGGGCCAGACAGGCAUCAAAAGAAAUAGUCUUGCGCACAACCAGAAAGUCUGUAAUCAUUUUAAGGGUA [G80A U108A], the self-cleavage stood at 0.02. For GUUAACGGUCAUAGGCCAUGGAAACUAGGAGCACCAUUUCGCUGCCAGUGAAGAAAUGAACAAAGAAAAUCUGGGCCAGACAGGCAUCAAGAGAAAUAGUCUUGCGCUCAACCAGAAAGUCUGUAAUCAUUUUAAGGGUA [G80A A91G], the self-cleavage turned out to be 0.08. Under GUUAACGGUCAUAGGCCAUGGAAACUAGGAGCACCAUUUCGCUGCCAGUGAAGAAAUGAACAAAGAAAAUCUGGGCCAAGCAGGCAUCAAAAGAAAUAGUCUUGCGCCCAACCAGAAAGUCUGUAAUCAUUUUAAGGGUA [G79A U108C] stands 0.01. For the variant GUUAACGGUCAUAGGCCAUGGAAACUAGGAGCACCAUUUCGCUGCCAGUGAAGAAAUGAACAAAGAAAAUCUGGGCCACGCAGGCAUCAAAAGAAAUAGUCUUGCGCUCAACCAGAAAGUCUGUAAUCAUUCUAAGGGUA [G79C U132C], the self-cleavage stood at 0.06. For GUUAACGGUCAUAGGCCAUGGAAACUAGGAGCACCAUUUCGCUGCCAGUGAAGAAAUGAACAAAGAAAAUCUGGGCCAAGCAGGCAUCAAAAGAAAUAGUCUUGCGCUCAACCAGAAAGGCUGUAAUCAUUUUAAGGGUA [G79A U120G], the self-cleavage worked out at 0.11. With GUUAACGGUCAUAGGCCAUGGAAACUAGGAGCACCAUUUCGCUGCCAGUGAAGAAAUGAACAAAGAAAAUCUGGGCCAAGCAGGCAUCAAAAGAAAUAGUCUUGCGCUCAACCAGAAAGACUGUAAUCAUUUUAAGGGUA [G79A U120A], the self-cleavage is 0.13. With GUUAACGGUCAUAGGCCAUGGAAACUAGGAGCACCAUUUCGCUGCCAGUGAAGAAAUGAACAAAGAAAAUCUGGGCCAAGCAGGCAUCAAAAGAAAUAGUCUUGCGCUCAACCAGAGAGUCUGUAAUCAUUUUAAGGGUA [G79A A117G] the figure was 0.09. Turning to GUUAACGGUCAUAGGCCAUGGAAACUAGGAGCACCAUUUCGCUGCCAGUGAAGAAAUGAACAAAGAAAAUCUGGGCCAUGCAGGCAUCAAAAGGAAUAGUCUUGCGCUCAACCAGAAAGUCUGUAAUCAUUUUAAGGGUA [G79U A94G], the self-cleavage came out at 0.43. With GUUAACGGUCAUAGGCCAUGGAAACUAGGAGCACCAUUUCGCUGCCAGUGAAGAAAUGAACAAAGAAAAUCUGGGCCAAGCAGGCAUCAACAGAAAUAGUCUUGCGCUCAACCAGAAAGUCUGUAAUCAUUUUAAGGGUA [G79A A91C] the figure was 0.09; with GUUAACGGUCAUAGGCCAUGGAAACUAGGAGCACCAUUUCGCUGCCAGUGAAGAAAUGAACAAAGAAAAUCUGGGCCAAGCAGGCAUCAAAAGGAAUAGUCUUGCGCUCAACCAGAAAGUCUGUAAUCAUUUUAAGGGUA [G79A A94G], 0.15; with GUUAACGGUCAUAGGCCAUGGAAACUAGGAGCACCAUUUCGCUGCCAGUGAAGAAAUGAACAAAGAAAAUCUGGGCCAUGCAGGCAUCAAAAGAAAUAGUCUUUCGCUCAACCAGAAAGUCUGUAAUCAUUUUAAGGGUA [G79U G104U], 0.01. With GUUAACGGUCAUAGGCCAUGGAAACUAGGAGCACCAUUUCGCUGCCAGUGAAGAAAUGAACAAAGAAAAUCUGGGCCAUGCAGGCAUCAAAAGAAAUAGCCUUGCGCUCAACCAGAAAGUCUGUAAUCAUUUUAAGGGUA [G79U U100C] the figure was 0.03. Under GUUAACGGUCAUAGGCCAUGGAAACUAGGAGCACCAUUUCGCUGCCAGUGAAGAAAUGAACAAAGAAAAUCUGGGCCAUGCAGGCAUCAAAAGAAGUAGUCUUGCGCUCAACCAGAAAGUCUGUAAUCAUUUUAAGGGUA [G79U A96G] stands 0.1; under GUUAACGGUCAUAGGCCAUGGAAACUAGGAGCACCAUUUCGCUGCCAGUGAAGAAAUGAACAAAGAAAAUCUGGGCCAAGCAGGCAUCAAAAGAAAUAGUCUUGCGCUCAACCAGAAAGUCUGUAAUCAUUUUGAGGGUA [G79A A134G], 0.09; under GUUAACGGUCAUAGGCCAUGGAAACUAGGAGCACCAUUUCGCUGCCAGUGAAGAAAUGAACAAAGAAAAUCUGGGCCAUGCAGGCAUCAAAAGAAAUAGUCUUGCGCUCAACCAGAAAGUCUGUAAUCAUUUUAGGGGUA [G79U A135G], 0.02. For GUUAACGGUCAUAGGCCAUGGAAACUAGGAGCACCAUUUCGCUGCCAGUGAAGAAAUGAACAAAGAAAAUCUGGGCCUGGCAGGCAUCAAAAGAAAUAGUCUUGCGCUCAACCAGAAAGUCUGUAAUCAUUCUAAGGGUA [A78U U132C], the self-cleavage worked out at 0.48. GUUAACGGUCAUAGGCCAUGGAAACUAGGAGCACCAUUUCGCUGCCAGUGAAGAAAUGAACAAAGAAAAUCUGGGCCAGACAGGCAUCAAAAGAAAUAGUCUUGCGCUCAACCAGAAAGUCUGUAAUCACUUUAAGGGUA [G80A U130C]: the self-cleavage stood at 0.08. Turning to GUUAACGGUCAUAGGCCAUGGAAACUAGGAGCACCAUUUCGCUGCCAGUGAAGAAAUGAACAAAGAAAAUCUGGGCCAGCCAGGCAUCAAAAGAAAUAGUCUUGCGCUCAACCAGAAAGUCUGUAAUCAUUAUAAGGGUA [G80C U132A], the self-cleavage was 0.1. Under GUUAACGGUCAUAGGCCAUGGAAACUAGGAGCACCAUUUCGCUGCCAGUGAAGAAAUGAACAAAGAAAAUCUGGGCCAGCCAGGCAUCAAAAGAAAUAGUCUCGCGCUCAACCAGAAAGUCUGUAAUCAUUUUAAGGGUA [G80C U103C] stands 0.03. For GUUAACGGUCAUAGGCCAUGGAAACUAGGAGCACCAUUUCGCUGCCAGUGAAGAAAUGAACAAAGAAAAUCUGGGCCAGAAAGGCAUCAAAAGAAAUAGUCUUGCGCUCAACCAGAAAGUCUGUAAUCAUUUUAAGGGUA [G80A C81A], the self-cleavage was 0.11.
